Data from PMC3845372.

Molecular target: RecA (RecAEc) (Escherichia coli, UniProt P0A7G6 2-353)
Assay: fluorescence anisotropy

RecA (RecAEc), sequence (P0A7G6 2-353): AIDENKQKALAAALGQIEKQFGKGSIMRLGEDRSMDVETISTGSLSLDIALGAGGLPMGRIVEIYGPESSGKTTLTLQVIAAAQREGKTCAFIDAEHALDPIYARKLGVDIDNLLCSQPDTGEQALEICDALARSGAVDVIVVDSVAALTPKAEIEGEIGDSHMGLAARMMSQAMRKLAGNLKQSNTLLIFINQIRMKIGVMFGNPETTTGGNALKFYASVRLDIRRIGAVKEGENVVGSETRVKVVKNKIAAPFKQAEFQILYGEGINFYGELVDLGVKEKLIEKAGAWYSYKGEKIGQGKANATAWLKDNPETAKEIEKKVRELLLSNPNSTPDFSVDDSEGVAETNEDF

B1: dimeric pilE G4 (NG16 core) (structured_DNA)
DNA: GGGTGGGTTGGGTGGG
B1: no binding.

B2: oligo dT16 (ssDNA)
DNA: TTTTTTTTTTTTTTTT
B2 showed a Kd of 640 ± 260 nM.
